For the assay, the target named is vimentin (mouse (endogenous in MC-3T3 and in …, UniProt P20152 1-466)). As to the kind of experiment: co-IP.
vimentin (mouse, sequence (P20152 whole entry): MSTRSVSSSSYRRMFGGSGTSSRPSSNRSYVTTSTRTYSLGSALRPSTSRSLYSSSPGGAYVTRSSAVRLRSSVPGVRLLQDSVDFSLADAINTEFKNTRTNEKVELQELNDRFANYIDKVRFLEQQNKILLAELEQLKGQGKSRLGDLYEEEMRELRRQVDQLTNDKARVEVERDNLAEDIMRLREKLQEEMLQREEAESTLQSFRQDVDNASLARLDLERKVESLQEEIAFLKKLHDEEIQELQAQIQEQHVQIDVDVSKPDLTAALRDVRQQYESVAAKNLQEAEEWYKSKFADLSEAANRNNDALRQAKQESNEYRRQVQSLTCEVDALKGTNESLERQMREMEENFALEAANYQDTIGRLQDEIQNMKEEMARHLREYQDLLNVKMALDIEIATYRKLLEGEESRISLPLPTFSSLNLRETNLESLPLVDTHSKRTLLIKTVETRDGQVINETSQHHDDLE

B1: activated PKCζ (phosphorylated on threonine 410) (enzyme, mouse (endogenous in MC-3T3), UniProt Q02956 1-592, looked up)
chain: MPSRTDPKMDRSGGRVRLKAHYGGDILITSVDAMTTFKDLCEEVRDMCGLHQQHPLTLKWVDSEGDPCTVSSQMELEEAFRLVCQGRDEVLIIHVFPSIPEQPGMPCPGEDKSIYRRGARRWRKLYRANGHLFQAKRFNRGAYCGQCSERIWGLSRQGYRCINCKLLVHKRCHVLVPLTCRRHMDSVMPSQEPPVDDKNDGVDLPSEETDGIAYISSSRKHDNIKDDSEDLKPVIDGVDGIKISQGLGLQDFDLIRVIGRGSYAKVLLVRLKKNDQIYAMKVVKKELVHDDEDIDWVQTEKHVFEQASSNPFLVGLHSCFQTTSRLFLVIEYVNGGDLMFHMQRQRKLPEEHARFYAAEICIALNFLHERGIIYRDLKLDNVLLDADGHIKLTDYGMCKEGLGPGDTTSTFCGTPNYIAPEILRGEEYGFSVDWWALGVLMFEMMAGRSPFDIITDNPDMNTEDYLFQVILEKPIRIPRFLSVKASHVLKGFLNKDPKERLGCRPQTGFSDIKSHAFFRSIDWDLLEKKQTLPPFQPQITDDYGLDNFDTQFTSEPVQLTPDDEDVIKRIDQSEFEGFEYINPLLLSAEESV
modifications: phosphothreonine at 410
As for B1, the “fold increase of the association with IGF-I” value came to 3.5 fold.

For the origin of these results see publication PMC5228590 (Journal of bone and mineral research : the official journal …, 2016).
